According to the nanobody polyreactivity screen of Harvey et al. (2022):

Assay: yeast display, Sf9 membrane polyspecificity reagent, FACS + sequencing; frameworks hold sequencing errors
Outline: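 After 36–48 hours of galactose induction, yeast (Saccharomyces cerevisiae BJ5465) displaying a synthetic nanobody library were stained at 4 °C for 1 hour with 10% biotinylated, detergent-solubilized Sf9 membrane reagent. Streptavidin microbeads enriched the stained cells before FACS sorting into low and high (top ~1%) gates on anti-HA and streptavidin fluorescence. Each clone's polyreactivity label reflects its gate of origin.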

| Sequence | polyreactivity (PSR sort gate) |
| --- | --- |
| QVQLVESGGGLVQAGGSLRLSCAASGFIFYQYAMGWYRQAPGKERELVAAISTRGGSTYYADSVKGRFTISRDNAKNTVYLQMNSLKPEDTAVYYCAATVNARRVTRRYYWGQGTQVTVSS | high polyreactivity |
| QVQLVESGGGLVQAGGSLRLSCAASGSIFAGNAMGWYRQAPGKERELVAAISWRGGSTYYADSVKGRFTISRDNAKNTVYLQMNSLKPEDTAVYYCAATWYDRRTFFYKYDYWGQGTQVTVSS | low polyreactivity |
| QVQLVESGVVLVEAGGSLRLSCAASGRILSVYAMGWYRQAPRKERELVAAIRRGVGSTYYADSVKGRFTISRDNAKNTVYLQMNSLKPEDTADYYCAPYSYHNRIRYDSWGQGTQVTVSS | high polyreactivity |
| QVQLVESGGGLVQAGGSLRLSCAASGSIFPGNAIGSYRQAPGKERELDARITVSGGTTYFADSVKGRFTISRDNAKNTVYLQMNSLKPEDTAVYYCAADGPSPFIQGYAKGDYWGQGTQVTVSW | low polyreactivity |
| QVQLVESGGGLVQAGGSLRLSCPASGFNFPYYAKGWYRQAPGKEREFVAAISSGGNTNYADSVKGRFTISRDNAKNTVYLQMNSLKPEDTAVFYCAAGFLRYLNWSVKYDYWGQGTQVTVSS | low polyreactivity |
| QVQLVESGGGLVQAGGSLRLSCAASGRTFRSNAMGWYRQAPGKERELVAAITASGGNTYYADSVKGRFTISRDNAKNTVYLQMNSLKPEDTAVYYCAAVSRYNYGTNPYYYWGQGTQVNVSS | high polyreactivity |
| QVQLVESGGGLVQAGGSLRLSCAASGITFDEYAMGWYRQAPGKERELVAVISRSGGTTYYADSVKGRFTISRDNAKNTVYLQMNSLKPEDTAVYYCNARRWGPPGYYWGQGTQVTVSS | high polyreactivity |
| QVQLVESGGGLVQAGGSLRLSCAASGSTFYRNAMGWYRQAPGKERELVAAISSTGGSTYYADSVKGRFTISRDNAKNTVYLQMNSLKAEDTAVYYCAVDPGLTKGFGYWGQGTHVTVSS | low polyreactivity |
| QVQLVESGGGLVQAGGSLRLSCAASGSIFDINAMGWYRQAPGKERELVAVITDSGSTYYADSVKGRFTISRDNAKNTVYLQMNSLKPEDTAVYYCAAESSLLFFLMDYWGQATQVTVSS | low polyreactivity |
| QVQLEESGGGLVQAGGSLRLSCAASGLILRWNAMGWYRQAPGKERELVATINRGGSTNYADSVKGRFTISRDNAKNTVYLQMNSLKPEDTAVYYCYKARTSQYHHTYWRTYGYWGPGTQVTVSS | low polyreactivity |
| QVHLVESGRGLVQAGGSLRLSCAASGRTLYRYAMGWYRQAPGKERELVAAINQSGGRTYYADSVKGRFTISRDNAKNTVYFQMNSLKPEDTAVYYCAASPVRVGKVIDGRDYWGQGTQVTVSS | high polyreactivity |
| QVQLVESGGGLVQAGGSLRLSCAASGLISIFYTMGWYRQAPGKERELVAAITSGGSSTYYADSVKGRFTISRDNAKNTVYLQMNCLIPVDTAVYYCAAEPGFYYYWGQGTQVTVSS | low polyreactivity |
| QVQLVESGGGLVQAGGSLRLSCAASGSIFRIYAMGWYRQAPGKERELVAGISKSGGSTYYADSVKGRFTISRDNAKNTVYLQMNSLKPEDTAVYYCNARRPSWGLDKYDYWGQGTQVTVSS | low polyreactivity |
| QVQLVESGGGLVQAGGSLRLSCAASGSIFHANAMGWYRQAPGKERELVAAISQSCDTTYYADSVKGRFTISRDNAKNTVYLQMNSLKPEDTAVYYCAAEEGYGAFWYDYWGQGTQVTVSS | high polyreactivity |
| QVQLVESGGGLVQAGGSLRLSCAASGITFVFYAMGWYRQAPGKERELVATITWRTTRTFYADSVKRRFTISRDNAKNTVYLQMNSLKPEDTAVYYCAAGVNSTTRINDYWGQGTQVTVSS | low polyreactivity |
| QVQLVESGGGLVQAGGSLRLSCAASGPIIGQYAMVWYIQAPGKERELVAAITYSGGRTYYADSVKGRFTISRDNAKNTVYLQMNSLKPEDTAVYYCAARGRASFERRGGYYYWGQVTQVTVSS | high polyreactivity |
| QVQLVESGGGLVQAGGSLRLSCAASGFTFSNNVMGWYREAPGKERELVAAISRRGGSTYYADSVKGRFTISRDNAKNTVYLQMNSLKPEDTAVYYCAATYPYYVDTSPGKDDHWRQGTQVTVSS | high polyreactivity |
| QVQLVESGGGLVQAGGSLRLSCAASGFTFTKNAMGWYRQAPGKERELVAAISRGGGRTYYADSVKGRFTISRDNAKNTVYLQMNSLKPEDTAVYYCNVDKVGPGYDYWGQGTQVTVSS | high polyreactivity |
| QVQLVESGGGLVQAGGSLRLSCAASGRIIGKNVMGWYRQAPGKERELVAAISKSGGSTYYADSVKGRFTISRDNAKNTVYLQMNSLKPEDTAVYYCAAKYYYHWHRQGYDYWGQGTQVTVSS | high polyreactivity |
| QVQLEESGGCLVQAGGSLRLSCAASGFTFRSYAMGWYRQAPGKERELVAAISSGGSTYYADSVKGRFTISRDNAKITVYLKMNSLKPEDTAVYYCAARRYYGYGHWGQGTHVTVSS | high polyreactivity |
| QVQLVESGGGLVQAGGSLRLSCAASGSTFHVNAMGWYRQAPGKEREFGAVISSSAGRTYYADSVKGRFTISRDNAKNTVYLQMNSLKPEDTAVYYCAAGTFKPYWRKFEYWGQGTQVTVSS | high polyreactivity |
| QVQLVESGGGLVQAGGSLRLSCAASGSTFHYYAMGWYRQAPGKERELVATITWRGGFTYYADSVKGRFTISRDNAKNTVYLQMNSLKPEDTAGYYCTDYSVRRYRDPRLYYWGQGTQVTVSS | high polyreactivity |

| Sequence | polyreactivity (PSR sort gate) |
| --- | --- |
| QVQLVESGGGLVQAGGSLRLSCAASGRTIRLYAMGWYRQAPGQERELVAAITRGGRTNYADSVKGRFTISRDNAKNTVYLQMNSLKPEDTAVYYCAARYVERHTDYYYWGQGTQVTVSS | low polyreactivity |
| QVQLVESGGGLVQAGGSLRLSCAASGFIFQYNTMGWYRQAPGKERELVAVITRTGSTNYADSVKGRFTISRDNGKNTVYLQMNSLQPEDTAVYYCATSVYSRPRKPRYYYWGQGTQVTVSS | high polyreactivity |
| QVQLVESGGGLVQAGGSLRLSCAASGGTSIYNDMGWYRQAPGKERELVAAISWSGGSTYYADSVKGRFTISRDNAKNTVYLQMNSLKPEDTAVYYCATQGFYKDYSRYDYWGQVTQVTVSS | low polyreactivity |
| QVQLVESGGGLVQAGGSLRLSCAASGIIFRVNTIGWDRQAPGKEREMVARITGAGNTYYADSVNGRCTISRDNAKNSVYLQMNSLKPKDTAVYYCAVREFDKRRVIYYYWGQGTQVTVLS | high polyreactivity |
| QVQLVESGGGLVQAGGSLRLSCAASGRTFGQNAMGWYRQAPGKERELVAAISASGSNTYYADSVKGRFTISRDNAKNTVYVQMNSLKPEDTAVYYCAKQVYRPGQQSRYDYWGQGTQVTVSS | low polyreactivity |
| QVQLVESGGGKVQEGGSLRLSCAASGRTLAPYAMGWYRQAPGKERELVAISTIGGTTYYADSVKGRFTISRDNAKNTVYLQMNSLKPEDTAVYYGAADGNSTGVYLDGGEGFAYDYWGQGTQVTVSS | low polyreactivity |
| QVQLVESGGGLVQAGGILRLSCAASGLIFGYYDMGWYRQARGKEREFVAGITYRGSSTYYADSVKGRFTISRDNAKNTVYLQMNSLKPEDTAVYYCAKYKRKKLTTNYYYWGQGTQVTVSS | high polyreactivity |
| QVQLVESGGGLVQAGGSLRLSCAASGRIFVYKAMGSYRQAPGKERELVASITSSGGSTYYADSVKGRFTISRDNAKNTVYLQMNSLKPEDTAVYYCAADVQPDTRSTPEMDYWGQGTQVTVSS | low polyreactivity |
| QVQLQESGVRMVQAGGSLRLSCAASGNIFLGDTMGWYRQAPGKEREFVAGIARGGNPYYADSEKGRLTISRNNANNTVYLEKISLKPEDSAVHYCSVQRSDASDYNYWGQGTQVTVIS | low polyreactivity |
| QVQLVESGGGLVQAGGSLRLSCAASGSTLRRNAMGWYRPAPGKERELVAAISGTGGSTYYADSVKGRFTISRDNAKNTVYLQMNSLKPEDTAVYYCAATGWYYDYDYWGQGTQVTVSS | low polyreactivity |
| QVQLVESGGGLVQAGGSLRLSCAASGFTLWLNAMGWYRQAPGTERELVAAITTSDDGTYYADSVKGRFTISRDNAKNTVYLQMNSLKPEDTAVYYCAADYYSVLYDYWGQGTQVTVSS | low polyreactivity |
| QVQLVESGGGLVQAGGSLRLICADSGRIFGWYAMGWYRQAPGKERELVAAITSGSRTSYADSVKGRFTISRDNAKNTVYLQMNSLKPEDTAVYYCNRVSHLDYYWGQGTQVTVSS | high polyreactivity |
| QVQLVESGGGLVQAGGSLRLSCAASGFTFEYYAMGWSRQAPGKETELVATITWNGGSTYYADSVKGRFTISRDNAKNTVYLQMNSLKPVDTAVYYCAADEQAYYVRRFDYWGQCTQVTVSS | low polyreactivity |
| QVQLVESGGGLVQAGCSLRLSCDASGSIYKYYSMGWYRQAPGKERELVAAISKNGGSTYYADSVKGRFTISRDNAKYTVYLQMNSLKPEDTAVYYCAAEEGYRWVRYNYWGQGTQVTVSS | high polyreactivity |
| QVQLVESGGGLVQAGGSLRLSCAASGRTFRYYAMVWYRQAPGKEREWVASISSSGARTYYADSVKGRFTISRDNAKNTVYLRMNSQKPEDSAVYYCAASQRSGHPSYDYWGQGTQVTVSS | high polyreactivity |
| QVQLVESGGGLVQAGGSLRLSCAASGGTFYSYAMGWYRQAPGIEREVVAAISRRGGSTYYADSVKGRFTISRDNAKNTVYLLMNSLKPEDTAVYFCNTYIYQVRDDYWGQGTQVTVSS | high polyreactivity |
| QVQLVETGGGLVQAGGSLRLSCAASGLIFYRYAMGWYRQAPGKERELVAVITRSGGNTNYADSVKGRFTISRDNAKNTVYLQMNSLKPEDTAVYYCATRGIWKKVPYYYWGQGTQVTVSS | high polyreactivity |
| QVQLVESGGGLVQAGGSLRLICAASGSIFDWYDMGWYRQAPGKERELVAAITTGGITNYADSVKGRFTFSRDNAKNSVYLQMNSLKPEDTAVYYCNADFSVEFDYWGQGTQVNVSS | low polyreactivity |
| HVQLVESGGGLVQAGGSLRISCAASGRIFGRNAMGWYRQAPGTERELVATISGGGSTYYADSVKGRFTISRDNAKNTVYFQMNSLKPEDTAVFYCAVGHRWWGAYAGYDYWGQGTQVTVSS | low polyreactivity |
| QVQLVESGAGLVQAGGSLRLSCAASGITFRGYAMGWYRQAPGKERELVAAISSRGGSTYYADSVMGRFTISRDNAKNTVYLQMNSLKPEDTAVYYCNAVSGLYFTYTYDYWGQGTQVTVSS | high polyreactivity |
| QVQLVESGGGLVQAGGSLRLSCAASGFTFRYYAMGCYRQAPGKVRELVAAITGSGTRTYYADSVKGRFTISRDNAKNTVYLQMNSLKPEDTALYYCNAPRQPRWFDYWGQGTQVTVSS | high polyreactivity |
